Test results as given in patent US20100239578A1.
pKd: −log10 of the molar value. “And” between values parts separate entries of the source, which are not always exact repeats. Identical values can stand only once.

Columns and labels:
[1] = biological target: NOD-derived murine SIRPα (NOD allele of Sirpα) on NOD mouse macrophages (mouse (NOD strain)) (UniProt P97797); test: graded mCD47-Fc on adherent fresh macrophages, anti-human Fc-HRP colorimetric read-out
[2] = biological target: NOD-derived murine SIRPα (NOD allele of Sirpα) on NOD mouse macrophages (mouse (NOD strain)) (UniProt P97797); test: graded hCD47-Fc on unmanipulated fresh NOD macrophages (unclustered), anti-human Fc-HRP colorimetric read-out
[3] = biological target: NOD-derived murine SIRPα (NOD allele of Sirpα) on NOD mouse macrophages (mouse (NOD strain)) (UniProt P97797); test: graded hCD47-Fc on NOD macrophages pre-treated with a monoclonal antibody to the SIRPα ectodomain (clustered), anti-human Fc-HRP colorimetric read-out
[4] = biological target: NOD-derived murine SIRPα (NOD allele of Sirpα) on NOD mouse macrophages (mouse (NOD strain)) (UniProt P97797); test: graded hCD47-Fc on NOD macrophages, clustered (anti-SIRPα mAb pre-treatment) against unclustered

Chain of UniProt P97797 (P97797 32-513): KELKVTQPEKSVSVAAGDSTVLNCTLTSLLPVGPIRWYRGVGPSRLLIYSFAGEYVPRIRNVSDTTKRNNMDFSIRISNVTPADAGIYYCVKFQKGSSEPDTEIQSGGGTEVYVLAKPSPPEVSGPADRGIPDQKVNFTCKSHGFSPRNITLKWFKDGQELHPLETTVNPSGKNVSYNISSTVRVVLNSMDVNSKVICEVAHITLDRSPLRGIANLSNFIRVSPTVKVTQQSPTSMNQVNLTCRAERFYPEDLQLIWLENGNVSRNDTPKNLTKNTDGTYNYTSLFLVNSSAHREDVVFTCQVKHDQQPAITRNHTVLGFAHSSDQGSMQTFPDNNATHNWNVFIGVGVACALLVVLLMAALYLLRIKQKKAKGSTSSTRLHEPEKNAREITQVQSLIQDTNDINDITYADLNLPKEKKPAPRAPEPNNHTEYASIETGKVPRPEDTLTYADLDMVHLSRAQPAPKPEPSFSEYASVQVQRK

Substance	fold lower Kd than the NOR SIRPα-mCD47 interaction [1]	pKd [2]	pKd [3]	fold rise in affinity, clustered against unclustered [4] [fold]
Mouse CD47-Fc (mCD47-Fc) fusion protein (from UniProt Q61735 19-133) (Fc fusion)	4.7 fold and > 4 fold	–	–	–
human CD47 IgV domain fused to human IgG Fc (hCD47-Fc), made in 293F cells (from UniProt Q08722 19-135) (Fc fusion)	–	8.80	9.80	> 10
